Reference: EP4248993A1 (Charité - Universitätsmedizin Berlin, dated 2023)

Experiments:
[1] = molecular target: MERS-CoV RBD Twin-Strep His (wild type, G372-L588) (MERS-CoV); assay: ELISA (Figure 6A)
[2] = molecular target: MERS-CoV RBD Twin-Strep His (wild type, G372-L588) (MERS-CoV); assay: BLI, RBD Twin-Strep His on anti-Penta-His biosensor, global 1:1 fit
[3] = molecular target: MERS-CoV RBD Twin-Strep His (wild type, G372-L588) (MERS-CoV); assay: as above; remark: listed apart in the source

B1: recombinant mouse DPP4 (mDPP4) (receptor)
chain: SKDEAAADSRRTYSLADYLKSTFRVKSYSLWWVSDFEYLYKQENNILLLNAEHGNSSIFLENSTFESFGYHSVSPDRLFVLLEYNYVKQWRHSYTASYNIYDVNKRQLITEEKIPNNTQWITWSPEGHKLAYVWKNDIYVKVEPHLPSHRITSTGEENVIYNGITDWVYEEEVFGAYSALWWSPNNTFLAYAQFNDTGVPLIEYSFYSDESLQYPKTVWIPYPKAGAVNPTVKFFIVNIDSLSSSSSAAPIQIPAPASVARGDHYLCDVVWATEERISLQWLRRIQNYSVMAICDYDKINLTWNCPSEQQHVEMSTTGWVGRFRPAEPHFTSDGSSFYKIISDKDGYKHICHFPKDKKDCTFITKGAWEVISIEALTSDYLYYISNQYKEMPGGRNLYKIQLTDHTNVKCLSCDLNPERCQYYAVSFSKEAKYYQLGCWGPGLPLYTLHRSTDHKELRVLEDNSALDRMLQDVQMPSKKLDFIVLNETRFWYQMILPPHFDKSKKYPLLLDVYAGPCSQKADASFRLNWATYLASTENIIVASFDGRGSGYQGDKIMHAINRRLGTLEVEDQIEAARQFVKMGFVDSKRVAIWGWSYGGYVTSMVLGSGSGVFKCGIAVAPVSRWEYYDSVYTERYMGLPIPEDNLDHYRNSTVMSRAEHFKQVEYLLIHGTADDNVHFQQSAQISKALVDAGVDFQAMWYTDEDHGIASSTAHQHIYSHMSHFLQQCFSLH
[1]
  binding result: no binding

B2: recombinant human DPP4 with N-terminal 8xHis-tag (hDPP4-N'His) (receptor)
chain: HHHHHHHHGGGSGGGSGGGSDSRKTYTLTDYLKNTYRLKLYSLRWISDHEYLYKQENNILVFNAEYGNSSVFLENSTFDEFGHSINDYSISPDGQFILLEYNYVKQWRHSYTASYDIYDLNKRQLITEERIPNNTQWVTWSPVGHKLAYVWNNDIYVKIEPNLPSYRITWTGKEDIIYNGITDWVYEEEVFSAYSALWWSPNGTFLAYAQFNDTEVPLIEYSFYSDESLQYPKTVRVPYPKAGAVNPTVKFFVVNTDSLSSVTNATSIQITAPASMLIGDHYLCDVTWATQERISLQWLRRIQNYSVMDICDYDESSGRWNCLVARQHIEMSTTGWVGRFRPSEPHFTLDGNSFYKIISNEEGYRHICYFQIDKKDCTFITKGTWEVIGIEALTSDYLYYISNEYKGMPGGRNLYKIQLSDYTKVTCLSCELNPERCQYYSVSFSKEAKYYQLRCSGPGLPLYTLHSSVNDKGLRVLEDNSALDKMLQNVQMPSKKLDFIILNETKFWYQMILPPHFDKSKKYPLLLDVYAGPCSQKADTVFRLNWATYLASTENIIVASFDGRGSGYQGDKIMHAINRRLGTFEVEDQIEAARQFSKMGFVDNKRIAIWGWSYGGYVTSMVLGSGSGVFKCGIAVAPVSRWEYYDSVYTERYMGLPTPEDNLDHYRNSTVMSRAENFKQVEYLLIHGTADDNVHFQQSAQISKALVDVGVDFQAMWYTDEDHGIASSTAHQHIYTHMSHFIKQCFSLP
notes: range 38-766
[2]
  Kd: 7.8 nM

B3: recombinant rabbit DPP4 with C-terminal 6xHis-tag (rbDPP4-His) (receptor)
chain: NKGNHEYLHRQEDNILLFNAEYGNSSLFLANITFDEFGHSITDYSVSPDRLFLLLEYNYVKQWRHSYTASYDIYDLNKRQLITEERIPNNTQWITWAPEGHRLAYVWNNDIYVKLEPNLPSQRITWTGKADVIYNGITDWVYEEEVFSAYSALWWSPNGTFLAYAQFNDTGVPLIEYSFYSDEALQYPKTVRIPYPKAGAVNPTVRFFVVNTDSLSSITNATSVQITAPASMLIGDHYLCDVTWVTHERISLQWLRRIQNYSVMDICDYDRSSGRWNCLVARQHIEMSTTGWVGRFRPAEPHFTSDGNSFYKIMSNEEGYKHICYSLIDNQSCTFITRGAWEVIGIEALTSDYLYYISNEYKGMPGGRNLYKIQLTDHTKVTCLSCELKPERCQYYSVSFGKGAKYYQLRCSGPGLPLYTLHSSVNDQELRVLEDNSALDEMLQDVQMPSKTLDFIILNETKFWYQMVLPPHFDKSKKYPLLLEVYAGPCSQRADAIFRLNWATYLASTENIIVASFDGRGSGYQGDKIMHAINRRLGTLEVEDQIEAARQFSKMGFVDNERIAIWGWSYGGYVTSMVLGSGSGVFKCGIAVAPVSRWEYYDSIYTERYMGLPTPEDNLDHYRNSTVMSRAENFKQVEYLLIHGTADDNVHFQQSAQISKALVDAGVDFQAMWYTDEDHGIDSSTAHQHIYTHMSHFIKQCFSLHHHHHH
[3]
  Kd: 34.3 nM
